Measured values published in patent US20220220508, “ENGINEERED CASX SYSTEMS” (Scribe Therapeutics Inc., published 2022).
Changes are numbered by the printed parent chain.

B1: scaffold 174 + spacer 4.76 ; EGFP E6/4.76 target (ssRNA ; dsDNA)
RNA: ACUGGCGCUUUUAUCUGAUUACUUUGAGAGCCAUCACCAGCGACUAUGUCGUAGUGGGUAAAGCUCCCUCUUCGGAGGGAGCAUCAAAGUGUGGUCGGGGUAGCGGCUG
DNA 1: TGTGGTCGGGGTAGCGGCTG
DNA 2: CAGCCGCTACCCCGACCACA
B2: scaffold 174 + spacer 4.77 ; EGFP E7/4.77 target (ssRNA ; dsDNA)
RNA: ACUGGCGCUUUUAUCUGAUUACUUUGAGAGCCAUCACCAGCGACUAUGUCGUAGUGGGUAAAGCUCCCUCUUCGGAGGGAGCAUCAAAGUCAAGUCCGCCAUGCCCGAA
DNA 1: TCAAGTCCGCCATGCCCGAA
DNA 2: TTCGGGCATGGCGGACTTGA
B3: sgRNA 174.7.37 ; 7.37 TTC PAM target (ssRNA ; dsDNA)
RNA: ACUGGCGCUUUUAUCUGAUUACUUUGAGAGCCAUCACCAGCGACUAUGUCGUAGUGGGUAAAGCUCCCUCUUCGGAGGGAGCAUCAAAGGGCCGAGAUGUCUCGCUCCG
DNA 1: TGAAGCTGACAGCATTCGGGCCGAGATGTCTCGCTCCGTGGCCTTAGCTGTGCTCGCGCT
DNA 2: AGCGCGAGCACAGCTAAGGCCACGGAGCGAGACATCTCGGCCCGAATGCTGTCAGCTTCA

How the values were obtained:
CasX 488 = molecular target: T1, CasX 488; test: cell_activity; lentiviral iGFP editing; TTC PAM
T1 chain: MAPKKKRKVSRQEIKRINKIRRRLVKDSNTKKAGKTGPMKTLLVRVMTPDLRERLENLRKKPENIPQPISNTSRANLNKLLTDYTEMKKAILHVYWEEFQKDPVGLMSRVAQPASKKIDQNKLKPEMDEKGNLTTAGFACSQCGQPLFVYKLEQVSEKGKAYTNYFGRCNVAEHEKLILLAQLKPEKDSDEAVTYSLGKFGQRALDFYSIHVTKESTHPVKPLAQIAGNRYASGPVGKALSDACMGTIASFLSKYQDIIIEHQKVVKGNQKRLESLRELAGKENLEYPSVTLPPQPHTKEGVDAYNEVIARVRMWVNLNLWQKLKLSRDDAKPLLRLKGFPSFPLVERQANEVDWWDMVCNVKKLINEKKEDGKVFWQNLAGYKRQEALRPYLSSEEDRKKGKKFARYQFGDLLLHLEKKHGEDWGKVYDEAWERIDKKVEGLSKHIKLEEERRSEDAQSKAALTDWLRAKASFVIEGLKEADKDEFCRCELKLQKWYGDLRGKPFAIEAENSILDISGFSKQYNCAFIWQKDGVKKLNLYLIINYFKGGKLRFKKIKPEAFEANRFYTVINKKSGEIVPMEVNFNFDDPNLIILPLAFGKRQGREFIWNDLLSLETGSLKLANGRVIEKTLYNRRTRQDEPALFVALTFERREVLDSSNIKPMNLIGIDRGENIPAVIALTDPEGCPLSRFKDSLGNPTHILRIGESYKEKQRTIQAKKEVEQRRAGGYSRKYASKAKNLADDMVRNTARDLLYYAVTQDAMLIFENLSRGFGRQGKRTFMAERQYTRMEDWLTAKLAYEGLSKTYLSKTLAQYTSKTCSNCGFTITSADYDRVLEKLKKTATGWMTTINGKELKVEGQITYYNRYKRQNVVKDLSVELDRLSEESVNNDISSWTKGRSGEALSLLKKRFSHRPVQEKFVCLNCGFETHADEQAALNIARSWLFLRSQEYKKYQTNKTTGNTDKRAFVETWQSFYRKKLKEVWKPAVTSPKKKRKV

CasX 491 = molecular target: T2, CasX 491; test: cell_activity; lentiviral iGFP editing; TTC PAM
T2 chain: T1 chain with F410L, I669V

CasX 438 (in cells) = molecular target: T3, CasX 438 (in cells) (Planctomycetes); test: cell_activity; lentiviral iGFP editing; TTC PAM
T3 chain: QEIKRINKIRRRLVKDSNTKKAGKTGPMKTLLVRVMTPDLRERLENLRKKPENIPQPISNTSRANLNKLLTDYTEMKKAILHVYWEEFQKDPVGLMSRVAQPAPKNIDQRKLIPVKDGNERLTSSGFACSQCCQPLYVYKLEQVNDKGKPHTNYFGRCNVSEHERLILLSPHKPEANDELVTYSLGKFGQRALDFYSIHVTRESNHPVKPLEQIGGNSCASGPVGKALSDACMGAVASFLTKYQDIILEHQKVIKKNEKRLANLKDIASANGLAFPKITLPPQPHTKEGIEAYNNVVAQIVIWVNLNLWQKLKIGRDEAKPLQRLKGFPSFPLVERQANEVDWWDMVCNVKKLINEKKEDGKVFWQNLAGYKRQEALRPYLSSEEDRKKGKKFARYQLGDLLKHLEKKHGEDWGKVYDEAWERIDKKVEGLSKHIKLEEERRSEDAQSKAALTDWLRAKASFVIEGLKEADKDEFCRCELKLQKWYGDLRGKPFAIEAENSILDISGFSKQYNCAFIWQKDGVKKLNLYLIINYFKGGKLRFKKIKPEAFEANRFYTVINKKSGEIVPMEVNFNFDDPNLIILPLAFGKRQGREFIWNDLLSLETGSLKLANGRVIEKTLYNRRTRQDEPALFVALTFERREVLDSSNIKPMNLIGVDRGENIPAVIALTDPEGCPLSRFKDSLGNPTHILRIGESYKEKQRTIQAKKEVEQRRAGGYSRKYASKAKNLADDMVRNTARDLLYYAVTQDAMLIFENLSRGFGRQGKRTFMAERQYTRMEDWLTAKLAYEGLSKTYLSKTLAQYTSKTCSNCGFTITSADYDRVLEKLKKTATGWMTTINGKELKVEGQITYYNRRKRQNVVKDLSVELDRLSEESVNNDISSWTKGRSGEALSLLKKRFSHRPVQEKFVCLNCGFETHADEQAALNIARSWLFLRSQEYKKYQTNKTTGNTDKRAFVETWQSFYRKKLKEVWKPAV

CasX 438 = CasX 438 (Planctomycetes); test: cleavage_in_vitro; kcleave; TTC PAM; details: tags: N-terminal SV40 NLS, C-terminal NLS, TEV site and twin Strep tag; label: fluorescent
Sequence of CasX 438 (Planctomycetes) (chain, as listed by the source): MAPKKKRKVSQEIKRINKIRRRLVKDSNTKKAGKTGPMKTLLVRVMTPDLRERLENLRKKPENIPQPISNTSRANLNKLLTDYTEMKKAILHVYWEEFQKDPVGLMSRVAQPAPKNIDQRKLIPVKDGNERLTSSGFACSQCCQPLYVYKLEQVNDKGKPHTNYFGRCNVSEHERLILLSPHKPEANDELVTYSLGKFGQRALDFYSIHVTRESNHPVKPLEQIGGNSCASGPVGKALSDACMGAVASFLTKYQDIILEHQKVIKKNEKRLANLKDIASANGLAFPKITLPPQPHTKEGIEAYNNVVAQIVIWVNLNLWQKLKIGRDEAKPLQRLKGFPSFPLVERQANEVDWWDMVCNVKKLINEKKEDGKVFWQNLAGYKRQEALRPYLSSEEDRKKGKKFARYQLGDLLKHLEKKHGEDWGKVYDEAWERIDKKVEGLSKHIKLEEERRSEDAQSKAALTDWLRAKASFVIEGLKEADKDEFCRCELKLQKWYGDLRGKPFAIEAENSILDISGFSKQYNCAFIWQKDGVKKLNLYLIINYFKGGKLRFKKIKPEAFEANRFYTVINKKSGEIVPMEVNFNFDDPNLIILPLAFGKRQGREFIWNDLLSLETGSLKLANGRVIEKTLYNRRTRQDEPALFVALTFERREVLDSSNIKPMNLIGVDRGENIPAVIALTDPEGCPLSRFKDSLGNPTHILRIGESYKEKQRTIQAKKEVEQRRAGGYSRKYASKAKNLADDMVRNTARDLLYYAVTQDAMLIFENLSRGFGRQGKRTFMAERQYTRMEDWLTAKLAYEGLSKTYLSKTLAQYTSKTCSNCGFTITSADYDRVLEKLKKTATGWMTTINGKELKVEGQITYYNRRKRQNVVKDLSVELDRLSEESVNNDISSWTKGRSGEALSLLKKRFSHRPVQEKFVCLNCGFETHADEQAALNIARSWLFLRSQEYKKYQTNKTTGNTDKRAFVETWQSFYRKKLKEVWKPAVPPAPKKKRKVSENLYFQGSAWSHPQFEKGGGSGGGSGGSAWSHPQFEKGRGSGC
Protocol: (§1) In vitro cleavage assays were performed essentially as described in Example 19, using CasX 2 (SED ID NO:2), CasX 119, and CasX 438 complexed with single guide 174 with spacer 7.37 targeted against B2M. Fluorescently labeled dsDNA targets that would be complementary with a 7.37 spacer and either a ITC, CTC, CTC, or ATC PAM were used (The DNA sequences used to generate each dsDNA substrate are shown in Table 29. The PAM sequences for each are bolded. TS—target strand. NTS—Non-target strand). Target DNA was incubated with a 20-fold excess of the indicated RNP and the amount of cleaved target was determined at the indicated. time points. The monophasic fit of the combined replicates is shown. During the assay, samples were taken at 0.25, 0.5, 1, 2, 5, 10, 30, and 60 minutes. Gels were imaged with an Amersham Typhoon and quantified using the IQTL 8,2 software. Apparent first-order rate constants for non-target strand cleavage (kcleave) were determined for each Casx:sgRNA complex on each target. Rate constants for targets with non-TTC PAM were compared to the TIC PAM target to determine whether the relative preference for each PAM was altered for a given CasX variant. The results are shown in FIG. 73 (the monophasic fit of the combined replicates is shown) and Table 30. […]

[1] = molecular target: CasX 119 (L379R+A708K+[P793]) (Planctomycetes); test: cleavage_in_vitro; kcleave; TTC PAM; details: tags: N-terminal SV40 NLS, C-terminal NLS, TEV site and twin Strep tag; label: fluorescent
Sequence of CasX 119 (L379R+A708K+[P793]) (Planctomycetes) (chain, as listed by the source L379R A708K L379R A708K): as the sequence (chain, as listed by the source) above, with L408F, K413L, V667I, R865Y counted along it
Protocol: as §1

Binder	binding signal (CasX 488)	binding signal (CasX 491)	binding signal (CasX 438 (in cells))	activity (CasX 438)	activity [1]
B1	1.41 fold vs CasX 119	1.55 fold vs CasX 119	1.22 fold vs CasX 119	–	–
B2	2.43 fold vs CasX 119	3.03 fold vs CasX 119	–	–	–
B3	–	–	–	4.94 min⁻¹	8.33 min⁻¹
